Biological target: T1, MsABI5 (Malus sieversii, UniProt A0A498IDK6 1-328+A0A540LD52:305-441, internal_change)
T1 sequence: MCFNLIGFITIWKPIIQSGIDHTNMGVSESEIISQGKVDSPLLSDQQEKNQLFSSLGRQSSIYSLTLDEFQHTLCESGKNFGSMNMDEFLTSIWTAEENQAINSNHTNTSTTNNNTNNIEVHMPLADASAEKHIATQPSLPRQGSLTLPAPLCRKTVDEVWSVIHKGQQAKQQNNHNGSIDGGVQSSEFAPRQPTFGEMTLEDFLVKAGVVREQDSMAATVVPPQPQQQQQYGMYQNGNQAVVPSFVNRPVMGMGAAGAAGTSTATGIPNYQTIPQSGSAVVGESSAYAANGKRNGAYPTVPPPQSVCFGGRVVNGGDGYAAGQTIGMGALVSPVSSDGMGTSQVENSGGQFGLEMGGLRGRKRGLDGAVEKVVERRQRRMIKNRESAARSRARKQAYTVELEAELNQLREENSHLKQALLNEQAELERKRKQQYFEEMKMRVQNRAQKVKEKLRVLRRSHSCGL
Test: EMSA; EMSA per manufacturer's instructions (Beyotime); buffer, salt, pH and temperature not stated
Conditions: protein: recombinant; tags: MBP (pMAL-C2X); chain copies: 2; blunt

B1: MsP5CS2.2 promoter ABRE probe (dsDNA)
DNA 1: AGAAACCGACACGTCTCTCTTTTCTA
DNA 2: TAGAAAAGAGAGACGTGTCGGTTTCT
B1: binds.

B2: MsSMXL1 promoter P3 ACE probe (dsDNA)
DNA 1: ATGTTGATTAACGTACCACTTAGTAC
DNA 2: GTACTAAGTGGTACGTTAATCAACAT
B2: binds.

— publication PMC12090352, “Strigolactones enhance apple drought resistance via the MsABI5-MsSMXL1-MsNAC022 cascade”
